Results: patent US20170137467A1 (CHROMOTEK, published 2017)

Legend:
Assay in all cases: peptide library pulldown on immobilized Nb, LC-MS of supernatant; ratio vs GFP-Nb control (1 = not captured, 0 = captured)
BC2T H9M library peptide = target: T1, BC2T H9M library peptide (human)
T1 peptide: Ac-PDRKAAVSMWQQ-NH2
Procedure, shortened: (§1)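 Unbound peptide left in supernatant after 1 h pulldown in PBS/0.01% CHAPS measured by reversed-phase LC-MS (8–30% eluent B gradient, 20 min).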

[1] = target: T2, BC2T Q12D library peptide (human)
T2 peptide: Ac-PDRKAAVSHWQD-NH2
Procedure, shortened: as §1

[2] = target: T3, BC2T Q12P library peptide (human)
T3 peptide: Ac-PDRKAAVSHWQP-NH2
Procedure, shortened: as §1

[3] = target: T4, BC2T Q12N library peptide (human)
T4 peptide: Ac-PDRKAAVSHWQN-NH2
Procedure, shortened: as §1

[4] = target: T5, BC2T W10H library peptide (human)
T5 construct: also called BC2TW10X: H
T5 peptide: Ac-PDRKAAVSHHQQ-NH2
Procedure, shortened: as §1

BC2T S8A library peptide = target: T6, BC2T S8A library peptide (human)
T6 construct: also called BC2TS8X: A
T6 peptide: Ac-PDRKAAVAHWQQ-NH2
Procedure, shortened: as §1

[5] = target: T7, BC2T Q11E library peptide (human)
T7 peptide: Ac-PDRKAAVSHWEQ-NH2
Procedure, shortened: as §1

BC2T S8K library peptide = target: T8, BC2T S8K library peptide (human)
T8 construct: also called BC2TS8X: K
T8 peptide: Ac-PDRKAAVKHWQQ-NH2
Procedure, shortened: as §1

BC2T S8D library peptide = target: T9, BC2T S8D library peptide (human)
T9 construct: also called BC2TS8X: D
T9 peptide: Ac-PDRKAAVDHWQQ-NH2
Procedure, shortened: as §1

BC2T S8G library peptide = target: T10, BC2T S8G library peptide (human)
T10 construct: also called BC2TS8X: G
T10 peptide: Ac-PDRKAAVGHWQQ-NH2
Procedure, shortened: as §1

BC2T S8R library peptide = target: T11, BC2T S8R library peptide (human)
T11 construct: also called BC2TS8X: R
T11 peptide: Ac-PDRKAAVRHWQQ-NH2
Procedure, shortened: as §1

[6] = target: T12, BC2T Q11V library peptide (human)
T12 peptide: Ac-PDRKAAVSHWVQ-NH2
Procedure, shortened: as §1

[7] = target: T13, BC2T Q11K library peptide (human)
T13 peptide: Ac-PDRKAAVSHWKQ-NH2
Procedure, shortened: as §1

[8] = target: T14, BC2T Q11Y library peptide (human)
T14 peptide: Ac-PDRKAAVSHWYQ-NH2
Procedure, shortened: as §1

[9] = target: T15, BC2T Q12V library peptide (human)
T15 peptide: Ac-PDRKAAVSHWQV-NH2
Procedure, shortened: as §1

[10] = target: T16, BC2T Q11M library peptide (human)
T16 peptide: Ac-PDRKAAVSHWMQ-NH2
Procedure, shortened: as §1

[11] = target: T17, BC2T W10Q library peptide (human)
T17 construct: also called BC2TW10X: Q
T17 peptide: Ac-PDRKAAVSHQQQ-NH2
Procedure, shortened: as §1

BC2T H9A library peptide = target: T18, BC2T H9A library peptide (human)
T18 peptide: Ac-PDRKAAVSAWQQ-NH2
Procedure, shortened: as §1

[12] = target: T19, BC2T Q12F library peptide (human)
T19 peptide: Ac-PDRKAAVSHWQF-NH2
Procedure, shortened: as §1

[13] = target: T20, BC2T H9(I/L) library peptide, version 2 (N-terminal acetyl, C-terminal amide)
T20 construct: Ile and Leu versions are isobaric; two versions resolved but not assigned; also called I/L2
Procedure, shortened: as §1

B1: BC2-Nb(R106E) (VHH)
VHH: QVQLVESGGGLVQPGGSLTLSCTASGFTLDHYDIGWFRQAPGKEREGVSCINNSDDDTYYADSVKGRFTIFMDNAKDTVYLQMNSLKPEDTAIYYCAEARGCKRGEYEYDFWGQGTQVTVSS
notes: Headlock mutant; immobilized on beads in the library pulldown
Binder B1 has a ratio (BC2T H9M library peptide) of 0.2, a ratio [1] of 0.8 and a ratio [2] of 0.1. The ratio [3] was 0.1, the ratio [4] was 1.2 and the ratio (BC2T S8A library peptide) was 0.1. It also gave a ratio [5] of 0.4, a ratio (BC2T S8K library peptide) of 0.9 and a ratio (BC2T S8D library peptide) of 1. It also gave a ratio (BC2T S8G library peptide) of 0.8, a ratio (BC2T S8R library peptide) of 0.9 and a ratio [6] of 0.2. For the same binder, the ratio [7] was 0.1, the ratio [8] was 0.1 and the ratio [9] was 0.1. The ratio [10] was 0.2, the ratio [11] was 1.2 and the ratio (BC2T H9A library peptide) was 0.3. The ratio [12] was 0.3 and the ratio [13] was 0.2.
